The values that follow come from patent publication US20240076386A1 (Pfizer, published 2024).

The labels stand for the following.
B1: optimized anti-E-selectin antibody 1282 (antibody, human IgG1, kappa, V domains shown)
VH: EVQLVESGGGLVQPGGSLRLSCAASGYAIRSAYMHWVRQAPGKGLEWVARIDPANGNTIYVDSVEGRFTISADNAKNSAYLQMNSLRAEDTAVYYCAMDLYSTSEYWGQGTLVTVSS
VL: DIQMTQSPSSLSASVGDRVTITCKTSQNIERYLNWYQQKPGKAPKLLIYAASSLQSGVPSRFSGSGSGTDFTLTISSLQPEDFATYFCLQDNAWPLTFGQGTKVEIKR
notes: effector-null human IgG1, kappa
B2: optimized anti-E-selectin antibody 1448 (antibody, human IgG1, kappa, V domains shown)
VH: B1 VH with E65K, G66E
VL: B1 VL
notes: as for B1
B3: optimized anti-E-selectin antibody 1284 (antibody, human IgG1, kappa, V domains shown)
VH: B1 VH with D62E
VL: B1 VL
notes: as for B1
B4: optimized anti-E-selectin antibody 1444 (antibody, human IgG1, kappa, V domains shown)
VH: B1 VH with E65T
VL: B1 VL
notes: as for B1
B5: anti-E-selectin antibody 0164 chimera (antibody, human IgG1, kappa, V domains shown)
VH: EVQLQQSGAEFGKPGTSVKLSCKVSGYNIRSSYMHWVNQRPGKGLEWIGRIDPANGNTIYAEKFKIKAILTADSSSNTAYMQLSQLKSDDTAIYFCAMDLYSTSEYWGQGVMVTVSS
VL: DIQMTQSPSFLSASVGDRVTINCKTSQNINRYLNWYQQKLGEAPKLLIYNANSLQTGIPSRFSASGSGTDFTLTINSLQPEDVATYFCLQDNSWPLTFGSGTKLEIKR
notes: rat VH/VL on effector-null human IgG1 and human kappa

Substitutions are numbered along the chain they refer to.

For the first experiment, the target named is T1, free soluble human E-selectin in human serum (human, UniProt P16581 22-556, limits assumed).
T1 construct: also called endogenous human E-selectin
T1 sequence (looked up): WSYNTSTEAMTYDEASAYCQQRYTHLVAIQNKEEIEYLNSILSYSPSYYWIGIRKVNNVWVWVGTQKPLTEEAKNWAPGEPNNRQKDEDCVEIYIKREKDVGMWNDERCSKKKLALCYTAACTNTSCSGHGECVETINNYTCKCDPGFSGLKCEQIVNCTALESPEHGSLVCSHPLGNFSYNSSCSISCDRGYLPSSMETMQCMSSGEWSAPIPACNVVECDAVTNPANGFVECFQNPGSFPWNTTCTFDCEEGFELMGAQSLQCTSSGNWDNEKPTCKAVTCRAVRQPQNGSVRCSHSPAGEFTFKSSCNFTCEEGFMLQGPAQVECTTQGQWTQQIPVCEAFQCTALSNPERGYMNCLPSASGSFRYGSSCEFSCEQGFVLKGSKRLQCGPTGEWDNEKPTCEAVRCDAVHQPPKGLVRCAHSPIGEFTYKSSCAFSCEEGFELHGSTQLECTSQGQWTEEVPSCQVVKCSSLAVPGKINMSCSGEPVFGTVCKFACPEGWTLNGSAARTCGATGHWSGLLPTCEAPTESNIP
The experiment in a line: IP-LC/MS/MS of free soluble E-selectin in human serum, capture by biotinylated 0164. The protocol: This method quantified free soluble human E-selectin in human serum or free soluble monkey E-selectin in cynomolgus monkey serum. The method used 50 μL of serum in 250 μL of PBS which was incubated overnight at 4° C. […] After incubation, 30 μL of Invitrogen T1 streptavidin magnetic beads were added to each sample followed by incubation for 40 minutes at room temperature (shaking at 1000 rpm). Using a Hamilton Microlabstar, the magnetic beads were then washed two times with PBS/0.05% Tween-20 followed by one wash with PBS. Soluble E-selectin was then eluted from the beads with 145 μL of 30 mM hydrochloric acid (HCl) and neutralized with 32 μL of 1 M Tris HCl, pH 8. Subsequently 50 fmol of stable isotope labeled (SIL) internal standard was added, followed by the addition of dithiothreitol (DTT, 10 μL×50 mM). After incubating 35 minutes at 60° C. the samples were allowed to cool to room temperature prior to the addition of iodoacetamide (IAA, 10 μL×100 mM). Samples were then placed in the dark for 30 minutes to which 1 μg of Promega LysC/trypsin (10 μL×100 […]) was added and then digested overnight at 37° C.
After overnight incubation, 50 μL of prepared sample was injected onto the nano ESILC-MS/MS.
The IC50 is the midpoint of a concentration-inhibition curve. One may read the IC90 as the concentration at which the effect reaches the 90% level. The molecule B1 yielded an IC50 of 2.4 nM and an IC90 of 4.9 nM.
B2 displayed an IC50 of 1.8 nM and an IC90 of 8.6 nM.
On the same counts, the results for B3 are 1.1 nM and 4.8 nM.
The corresponding values for B4 are 1.2 nM and 6.5 nM.

In another experiment the target is T2, recombinant histidine-tagged cynomolgus monkey E-selectin (Sino Biologicals; 190169-C08H) (cynomolgus monkey, UniProt A0A2K5U7H9 22-554).
T2 construct: also called recombinant cynomolgus monkey E-selectin
T2 sequence: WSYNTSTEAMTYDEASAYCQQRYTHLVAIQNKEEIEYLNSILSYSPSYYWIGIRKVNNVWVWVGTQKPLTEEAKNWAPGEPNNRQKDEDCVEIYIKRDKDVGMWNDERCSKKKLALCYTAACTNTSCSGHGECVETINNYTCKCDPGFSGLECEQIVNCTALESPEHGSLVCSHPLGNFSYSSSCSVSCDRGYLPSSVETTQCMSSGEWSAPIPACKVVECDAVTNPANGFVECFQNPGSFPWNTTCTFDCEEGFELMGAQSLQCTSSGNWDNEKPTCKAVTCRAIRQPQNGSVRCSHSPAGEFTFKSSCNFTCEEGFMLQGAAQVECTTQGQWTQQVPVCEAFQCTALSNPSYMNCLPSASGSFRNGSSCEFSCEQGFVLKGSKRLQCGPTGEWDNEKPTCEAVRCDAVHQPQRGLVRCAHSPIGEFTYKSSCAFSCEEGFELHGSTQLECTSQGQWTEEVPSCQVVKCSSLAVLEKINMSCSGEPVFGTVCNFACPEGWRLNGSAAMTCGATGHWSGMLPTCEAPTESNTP
Kind of experiment: competition ELISA, His-tagged E-selectin on Ni-NTA plate vs HRP-conjugated sialyl Lewis A. The protocol:
Recombinant histidine-tagged E-selectin; cynomolgus monkey E-selectin (Sino Biologicals; 190169-C08H) and human E-selectin (Sino Biologicals; 13025-H08H) stock solutions were prepared to a final concentration of 3 μg/mL in phosphate buffered saline (PBS) without calcium and magnesium. One hundred μL per well of the diluted recombinant E-selectin protein was added into a Ni-NTA HisSorb 96 well plate (Qiagen, 35061) and plates were incubated on an orbital shaker at room temperature for 2 hours. Sialyl Lewis A polyacrylamide biotin, a synthetic E-selectin ligand (GlycoTech corporation 01-044), was conjugated to streptavidin HRP (horse radish peroxidase) (Ultra Streptavidin HRP, Thermo Scientific N504) and diluted in assay diluent containing 2 mM calcium chloride (BD OptEIA buffer; BD Biosciences, 555213).
Following the incubation, the plates were washed 5 times with 200 μL of wash buffer containing 2 mM of calcium chloride (50 mM TRIS [trisaminomethane]; 150 mM sodium chloride, 0.05% polysorbate 20, pH 7.4; 2 mM of calcium chloride). […] The final antibody concentration ranged from 200 nM to 0.09 nM and the final concentration of HRP conjugated Sialyl Lewis A was 5 μg/mL. Plates were washed as mentioned before, and 100 μL per well of 1-Step Ultra TMB substrate (Thermo Scientific, 34028) was added and incubated for 5 minutes at room temperature. Reactions were stopped with 100 μl of 2M sulfuric acid and absorbance read at 450 nm (Spectramax M5e). Data were analyzed and graphed using GraphPad Prism software (Version 8.0.2).
In the case of B1, the IC50 was 3.23 nM.
Regarding B2, the IC50 was 2.74 nM.
The same measure, in the same setting: to B3 belongs 3.39 nM; to B4, 2.91 nM.
Consider B5, for which the IC50 was determined as 3.29 nM.
